Measurements as given in patent US20140128578A1.

Assays:
[1] = target: antibody in cell-free culture supernatant (Experiment 3); test: affinity precipitation from cell-free culture supernatant; antibody to Z-dimer 1:2, 1 h; precipitate collected on a 0.22 µm filter
[2] = target: IgG4 contained in cell-free eukaryotic culture supernatant (Experiment 1, test 1); test: affinity precipitation; 0.13 µmol Z-dimer with 0.065 µmol IgG4 in culture supernatant, 2 h; antibody left in supernatant measured by SEC UV signal and protein A chromatography
[3] = target: IgG1 contained in cell-free eukaryotic culture supernatant (Experiment 1, test 2); test: affinity precipitation; 16.25 nmol Z-dimer with 16.25 nmol IgG1 in culture supernatant, 2 h; antibody left in supernatant measured by SEC UV signal and protein A chromatography

“Z-dimer (dimerised protein Z; two Z-domain Cys tag monomers linked via a disulphide bridge) (designed binder)” gave a total yield of the antibody after the precipitation [1] of 98%, a percent of antibody precipitated [2] of 99% and a percent of antibody precipitated [3] of 76%.
